According to publication PMC10603098:

Legend:
[1] = biological target: GluA tetramers (sum of all co-purified GluA1-4 proteins divided by four) (rat (endogenous in rat brain)); assay: affinity purification with mass spectrometry; multi-epitope AP-MS: three polyclonal anti-GSG1L antibodies on protein A Dynabeads, 2 h; membranes of adult (P59) rat brain solubilised in CL-47; GSG1L KO rats as negative control; minimum tnR of 0.25 as indicator of specific interaction
[2] = biological target: homomeric GluA2Q_(flip) AMPA receptor, wild type (rat) (UniProt P19491)
[3] = biological target: GluA1/GluA2(R) E658K AMPA receptor heteromer (rat) (UniProt P19490)
[4] = biological target: GluA1 E651K/GluA2(R) AMPA receptor heteromer (rat) (UniProt P19490)
[5] = biological target: GluA1 E651K/GluA2(R) E658K AMPA receptor heteromer (rat) (UniProt P19490)
[6] = biological target: GluA1/GluA2(R) AMPA receptor heteromer, wild type (rat) (UniProt P19490)
[7] = biological target: homomeric GluA2Q_(flip) E658K AMPA receptor (rat) (UniProt P19491)

Row | Substance | stoichiometry N (GSG1L per GluA tetramer) [1] | fast time constant of recovery from desensitization (τ (recovery), two-pulse protocol, 10 mM L-Glu, outside-out patches of HEK293T/17 cells co-expressing GluA2 and GSG1L) [2] [ms] | slow time constant of recovery from desensitization (τ (recovery), two-pulse protocol, 10 mM L-Glu, outside-out patches of HEK293T/17 cells co-expressing GluA2 and GSG1L) [2] [ms] | fast time constant of recovery from desensitization of heteromers with EK on GluA2 only, co-expressed with GSG1L [3] [ms] | slow time constant of recovery from desensitization of heteromers with EK on GluA2 only, co-expressed with GSG1L [3] [ms] | time constant of recovery from desensitization (mono-exponential) of heteromers with EK on GluA1 only, co-expressed with GSG1L [4] [ms] | single time constant of recovery from desensitization of heteromers with EK on both GluA1 and GluA2, co-expressed with GSG1L [5] [ms] | fast time constant of recovery from desensitization of GluA1/A2 heteromers co-expressed with GSG1L [6] [ms] | slow time constant of recovery from desensitization of GluA1/A2 heteromers co-expressed with GSG1L [6] [ms] | single time constant of recovery from desensitization of GluA2 E658K co-expressed with GSG1L (the mutation eliminated the ability of GSG1L to slow recovery) [7] [ms]
1 | germ cell-specific gene 1-like protein (GSG1L) (from UniProt D3ZK93 1-322) (natural protein) | 1.74 | – | – | – | – | – | – | – | – | –
2 | mouse GSG1L (co-expressed, +GSG1L) (from UniProt D3Z7H4 1-322) (natural protein) | – | 37.5 | 322 | 80.6 | 446 | 338 | 130 | 23.7 | 548 | 48
